Experimental data published in patent US20210032299A1.
Starred links: 1 amine or outer side, 2 acyl side, 3 side chain; linkers in the order of their positions; H or OH if unused. Non-standard residues stand in square brackets, D forms with d. Groups on a side chain read outwards from the residue. No end group written: not given here. *: point of attachment. C20 diacid = O=C(O)CCCCCCCCCCCCCCCCCCC(=O)*; C18 diacid = O=C(O)CCCCCCCCCCCCCCCCC(=O)*; γGlu = O=C(O)[C@H](CCC(=O)[*:2])N[*:1]; αMeL = CC(C)C[C@](C)(N)C(=O)O; Orn = NCCC[C@H](N)C(=O)O; AEEA = NCCOCCOCC(=O)O; Aib = CC(C)(N)C(=O)O

T1: human glucose-dependent insulinotropic polypeptide (GIP) receptor (human), P48546
T1 chain: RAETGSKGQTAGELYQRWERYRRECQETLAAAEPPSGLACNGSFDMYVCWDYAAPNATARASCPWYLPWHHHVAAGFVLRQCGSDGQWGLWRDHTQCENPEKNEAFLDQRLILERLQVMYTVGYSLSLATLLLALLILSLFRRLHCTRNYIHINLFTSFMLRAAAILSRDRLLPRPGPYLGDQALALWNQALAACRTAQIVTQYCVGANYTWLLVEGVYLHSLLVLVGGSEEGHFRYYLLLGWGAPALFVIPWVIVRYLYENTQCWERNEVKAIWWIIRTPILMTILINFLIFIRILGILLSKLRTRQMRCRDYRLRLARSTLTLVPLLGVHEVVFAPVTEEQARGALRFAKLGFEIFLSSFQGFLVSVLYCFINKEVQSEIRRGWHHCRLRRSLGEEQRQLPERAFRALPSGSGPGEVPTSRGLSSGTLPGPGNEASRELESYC


Molecular target: T1, human glucose-dependent insulinotropic …
Experiment: SPA, displacement of [125I]-GIP from hGIPR membranes, 0.1% bacitracin

| Binder | Ki [pM] |
| --- | --- |
| Y[Aib]EGTFISDYSI[αMeL]LD[Orn]IHQ[Aib]DFV[dE]YK([AEEA-AEEA-γGlu-C20 diacid])LEGGPSSGAPPPS-NH2 [Example 101] | 139 |
| Y[Aib]EGTFISDYSIALDKIHQ[Aib]EFVNYK([AEEA-AEEA-γGlu-C20 diacid])LAGGPSSGAPPPS-NH2 (N-terminus assumed; SMILES CC[C@H](C)[C@H](NC(=O)[C@H](CO)NC(=O)[C@H](Cc1ccc(O)cc1)NC(=O)[C@H](CC(=O)O)NC(=O)[C@H](CO)NC(=O)[C@@H](NC(=O)[C@H](Cc1ccccc1)NC(=O)[C@@H](NC(=O)CNC(=O)[C@H](CCC(=O)O)NC(=O)C(C)(C)NC(=O)[C@@H](N)Cc1ccc(O)cc1)[C@@H](C)O)[C@@H](C)CC)C(=O)N[C@@H](C)C(=O)N[C@@H](CC(C)C)C(=O)N[C@@H](CC(=O)O)C(=O)N[C@@H](CCCCN)C(=O)N[C@H](C(=O)N[C@@H](Cc1c[nH]cn1)C(=O)N[C@@H](CCC(N)=O)C(=O)NC(C)(C)C(=O)N[C@@H](CCC(=O)O)C(=O)N[C@@H](Cc1ccccc1)C(=O)N[C@H](C(=O)N[C@@H](CC(N)=O)C(=O)N[C@@H](Cc1ccc(O)cc1)C(=O)N[C@@H](CCCCNC(=O)COCCOCCNC(=O)COCCOCCNC(=O)CC[C@H](NC(=O)CCCCCCCCCCCCCCCCCCC(=O)O)C(=O)O)C(=O)N[C@@H](CC(C)C)C(=O)N[C@@H](C)C(=O)NCC(=O)NCC(=O)N1CCC[C@H]1C(=O)N[C@@H](CO)C(=O)N[C@@H](CO)C(=O)NCC(=O)N[C@@H](C)C(=O)N1CCC[C@H]1C(=O)N1CCC[C@H]1C(=O)N1CCC[C@H]1C(=O)N[C@@H](CO)C(N)=O)C(C)C)[C@@H](C)CC) [Example 96] | 232 |
| Y[Aib]EGTFISDYSI[αMeL]LD[Orn]IHQ[Aib]EFV[dE]YK([AEEA-AEEA-γGlu-C18 diacid])LEGGPSSGAPPPS-NH2 (N-terminus assumed; SMILES CC[C@H](C)[C@H](NC(=O)[C@H](CCCN)NC(=O)[C@H](CC(=O)O)NC(=O)[C@H](CC(C)C)NC(=O)[C@](C)(CC(C)C)NC(=O)[C@@H](NC(=O)[C@H](CO)NC(=O)[C@H](Cc1ccc(O)cc1)NC(=O)[C@H](CC(=O)O)NC(=O)[C@H](CO)NC(=O)[C@@H](NC(=O)[C@H](Cc1ccccc1)NC(=O)[C@@H](NC(=O)CNC(=O)[C@H](CCC(=O)O)NC(=O)C(C)(C)NC(=O)[C@@H](N)Cc1ccc(O)cc1)[C@@H](C)O)[C@@H](C)CC)[C@@H](C)CC)C(=O)N[C@@H](Cc1c[nH]cn1)C(=O)N[C@@H](CCC(N)=O)C(=O)NC(C)(C)C(=O)N[C@@H](CCC(=O)O)C(=O)N[C@@H](Cc1ccccc1)C(=O)N[C@H](C(=O)N[C@H](CCC(=O)O)C(=O)N[C@@H](Cc1ccc(O)cc1)C(=O)N[C@@H](CCCCNC(=O)COCCOCCNC(=O)COCCOCCNC(=O)CC[C@H](NC(=O)CCCCCCCCCCCCCCCCC(=O)O)C(=O)O)C(=O)N[C@@H](CC(C)C)C(=O)N[C@@H](CCC(=O)O)C(=O)NCC(=O)NCC(=O)N1CCC[C@H]1C(=O)N[C@@H](CO)C(=O)N[C@@H](CO)C(=O)NCC(=O)N[C@@H](C)C(=O)N1CCC[C@H]1C(=O)N1CCC[C@H]1C(=O)N1CCC[C@H]1C(=O)N[C@@H](CO)C(N)=O)C(C)C) [Example 7] | 193 |
